This is an account of results in patent US6946265 (Xencor, dated 2005).

B1: GHA protein mutant b (A13V, T27V, S79A, V90I, G161M, S184A) (ligand)
chain: FPTIPLSRLFDNVMLRAHRLHQLAFDVYQEFEEAYIPKEQKYSFLQNPQTSLCFSESIPTPSNREETQQKSNLELLRIALLLIQSWLEPIQFLRSVFANSLVYGASDSNVYDLLKDLEEGIQTLMGRLEDGSPRTGQIFKQTYSKFDTNSHNDDALLKNYMLLYCFRKDMDKVETFLRIVQCRAVEGSCGF
B2: GHA protein mutant f (A13V, T27V, Y28F, F54Y, S55A, S79A, S85A, V90I, G161M, S184A) (ligand)
chain: FPTIPLSRLFDNVMLRAHRLHQLAFDVFQEFEEAYIPKEQKYSFLQNPQTSLCYAESIPTPSNREETQQKSNLELLRIALLLIQAWLEPIQFLRSVFANSLVYGASDSNVYDLLKDLEEGIQTLMGRLEDGSPRTGQIFKQTYSKFDTNSHNDDALLKNYMLLYCFRKDMDKVETFLRIVQCRAVEGSCGF
B3: GHA protein mutant d (A13V, T27V, S55A, S79A, S85A, V90I, G161M, S184A) (ligand)
chain: FPTIPLSRLFDNVMLRAHRLHQLAFDVYQEFEEAYIPKEQKYSFLQNPQTSLCFAESIPTPSNREETQQKSNLELLRIALLLIQAWLEPIQFLRSVFANSLVYGASDSNVYDLLKDLEEGIQTLMGRLEDGSPRTGQIFKQTYSKFDTNSHNDDALLKNYMLLYCFRKDMDKVETFLRIVQCRAVEGSCGF

This assay has as its target T1, full-length human growth hormone receptor (hGHR) (human, UniProt P10912 19-638).
T1 sequence (looked up): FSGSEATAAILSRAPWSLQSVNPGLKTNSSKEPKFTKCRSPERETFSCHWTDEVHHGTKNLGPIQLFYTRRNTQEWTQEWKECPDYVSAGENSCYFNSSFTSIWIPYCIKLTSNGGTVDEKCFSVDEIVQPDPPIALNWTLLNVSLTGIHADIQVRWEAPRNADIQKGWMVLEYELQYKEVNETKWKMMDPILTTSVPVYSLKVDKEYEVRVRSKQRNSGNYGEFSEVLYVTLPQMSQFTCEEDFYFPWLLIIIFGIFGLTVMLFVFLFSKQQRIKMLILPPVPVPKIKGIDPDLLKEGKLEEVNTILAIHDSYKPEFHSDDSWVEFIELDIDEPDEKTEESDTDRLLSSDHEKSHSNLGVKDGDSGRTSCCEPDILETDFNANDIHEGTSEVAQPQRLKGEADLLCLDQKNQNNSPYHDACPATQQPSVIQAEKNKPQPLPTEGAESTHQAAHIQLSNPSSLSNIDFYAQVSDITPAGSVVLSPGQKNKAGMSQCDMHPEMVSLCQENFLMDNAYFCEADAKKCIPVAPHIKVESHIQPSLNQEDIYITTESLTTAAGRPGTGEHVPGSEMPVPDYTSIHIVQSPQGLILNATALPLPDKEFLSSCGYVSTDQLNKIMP
The assay is described as follows: cell-based or functional assay.
B1: the “ED50, cell proliferation (MTT assay) of FDC-P1 cells transfected with hGHR” value is 320.
As for B2, the figure is 230; as for B3, 260.
